Assay [1] addresses HLA-A*02:01. Kind of assay: IEDB peptide-MHC binding, purified MHC/competitive/radioactivity; ≥ and ≤ were set here for values at or beyond the usual limits of such assays.
The target of a further assay is HLA-A*23:01. Kind of assay: IEDB peptide-MHC binding, purified MHC/competitive/fluorescence; filed as Kd, often an IC50 or EC50 that approximates it; ≥ and ≤ were set here for values at or beyond the usual limits of such assays.
In assay [2] the target is HLA-B*35:01. The assay is described as above.
The target of a further assay is HLA-A*01:01. Kind of assay: IEDB peptide-MHC binding, purified MHC/direct/fluorescence; filed as Kd, often an IC50 or EC50 that approximates it; ≥ and ≤ were set here for values at or beyond the usual limits of such assays.
The target in assay [3] is HLA-A*03:01. The description is as above.
Assay [4] has as its target HLA-B*57:01. The description is as above. The following applies: source organism: West Nile virus.
In assay [5] the target is HLA-B*51:01. Described as above. The conditions noted are these: source organism: West Nile virus.
Assay [6] addresses HLA-B*35:01. The assay is described as above.
Assay [7] has as its target HLA-A*26:01. Kind of assay: IEDB peptide-MHC binding, purified MHC/competitive/fluorescence; filed as Kd, often an IC50 or EC50 that approximates it; ≥ and ≤ were set here for values at or beyond the usual limits of such assays. The following applies: source organism: Vibrio antiquarius.
Another assay deals with HLA-B*27:03. The assay is described as above. The following applies: source organism: Vibrio antiquarius.
For assay [8], the target named is HLA-A*24:03. The description is as above. The following applies: source organism: Vibrio antiquarius.
For assay [9], the target named is HLA-B*15:01. The description is as above.
Assay [10] deals with HLA-B*51:01. The description is as above.
Another assay deals with HLA-A*29:02. The assay is described as above. The following applies: source organism: Vibrio antiquarius.
For another assay, the target named is HLA-B*39:01. The description is as above. The conditions noted are these: source organism: Vibrio antiquarius.
For a further assay, the target named is HLA-B*15:17. The assay is described as above. The following applies: source organism: Vibrio antiquarius.
The target of a further assay is HLA-B*46:01. The description is as above. The conditions noted are these: source organism: Vibrio antiquarius.
The target of assay [11] is HLA-B*57:01. Described as above. The following applies: source organism: Vibrio antiquarius.
The target of the next assay is HLA-B*18:01. Described as above. The following applies: source organism: Vibrio antiquarius.
The next assay deals with HLA-A*02:12. The assay is described as above. The following applies: source organism: Vibrio antiquarius.
For assay [12], the target named is HLA-A*03:01. Described as above. The following applies: source organism: Vibrio antiquarius.
Assay [13] deals with HLA-A*02:01. Described as above. The following applies: source organism: Vibrio antiquarius.
The next assay concerns the target HLA-B*07:02. Kind of assay: IEDB peptide-MHC binding, purified MHC/direct/fluorescence; filed as Kd, often an IC50 or EC50 that approximates it; ≥ and ≤ were set here for values at or beyond the usual limits of such assays. The conditions noted are these: source organism: Yersinia pestis Nepal516.
The next assay has as its target HLA-B*40:01. Described as above. The following applies: source organism: Yersinia pestis Nepal516.
Assay [14] deals with HLA-A*26:01. The assay is described as above. The following applies: source organism: Yersinia pestis Nepal516.
For the next assay, the target named is HLA-B*58:01. Described as above. The conditions noted are these: source organism: Yersinia pestis Nepal516.
Assay [15] concerns the target HLA-A*24:03. The description is as above. The following applies: source organism: Yersinia pestis.
The next assay deals with HLA-A*31:01. The assay is described as above. The conditions noted are these: source organism: Yersinia pestis Nepal516.
Assay [16] has as its target HLA-B*15:01. The assay is described as above.
The target in the next assay is HLA-B*27:05. Described as above. The following applies: source organism: Yersinia pestis Nepal516.
Assay [17] concerns the target HLA-B*08:01. Described as above. The following applies: source organism: Yersinia pestis Nepal516.
Another assay deals with HLA-A*69:01. The description is as above. The conditions noted are these: source organism: Yersinia pestis Nepal516.
The target in the next assay is HLA-A*11:01. Described as above. The following applies: source organism: Yersinia pestis Nepal516.
The target in a further assay is HLA-B*44:02. Described as above. The following applies: source organism: Yersinia pestis Nepal516.
Assay [18] concerns the target HLA-A*02:01. The assay is described as above.
A further assay addresses HLA-A*30:01. The assay is described as above. The conditions noted are these: source organism: Yersinia pestis.
For a further assay, the target named is HLA-B*83:01. Kind of assay: IEDB peptide-MHC binding, purified MHC/competitive/fluorescence; filed as Kd, often an IC50 or EC50 that approximates it; ≥ and ≤ were set here for values at or beyond the usual limits of such assays. The following applies: source organism: Escherichia coli 536.
Assay [19] addresses HLA-B*08:01. The assay is described as above. The following applies: source organism: Escherichia coli 536.
For another assay, the target named is HLA-B*15:42. The description is as above. The conditions noted are these: source organism: Escherichia coli 536.
Another assay concerns the target HLA-B*45:06. The assay is described as above. The conditions noted are these: source organism: Escherichia coli 536.
Setting [20] is: source organism: Mycobacterium tuberculosis variant bovis.
Setting [21] is: source organism: Vibrio antiquarius.
The mark [22] stands for this setting: source organism: Yersinia pestis.
Where [23] appears, read: source organism: Yersinia pestis Nepal516.
Where [24] appears, read: source organism: Escherichia coli 536.

On to GLSRYVARLS, for which, in the assay with HLA-A*02:01 [1] (source organism: Hepatitis B virus), the half-inhibitory concentration (IC50) (usually the concentration at which inhibition is half-maximal) was 0.877 µM.
With FFIQTDAAI, the dissociation constant (Kd) (usually the constant that tells how readily two partners part at equilibrium) with HLA-A*23:01 (source organism: Paramagnetospirillum magnetotacticum MS-1) stood at 0.0017 µM.
For RMYSPISIL, the IC50 in the assay with HLA-A*02:01 [1] (source organism: Human immunodeficiency virus 1) came to 0.056 µM.
MLAPSTLGY: the values for the dissociation constant (Kd) with HLA-B*35:01 [2] (source organism: Mycobacterium tuberculosis F11), with HLA-A*01:01 (setting [20]) and in the assay with HLA-A*03:01 [3] (setting [20]) were at most 0.0001 µM, 0.052 µM and 0.0345 µM, respectively.
With LAALGDTAW, the Kd in the assay with HLA-B*35:01 [2] (source organism: Japanese encephalitis virus) turned out to be 0.0892 µM; with HLA-B*57:01 [4], 6.18 µM.
In the case of QPAFMVASF, the values for the Kd in the assay with HLA-B*51:01 [5] and with HLA-B*35:01 [6] (source organism: West Nile virus) were at least 20 µM and 0.007 µM, respectively.
As for VILGVLLLI, in the assay with HLA-A*02:01 [1] (source organism: Homo sapiens), the IC50 turned out to be 0.164 µM.
The same measure, in the same setting: in the case of GLGQVPLIV it was 0.5 µM.
With VTGCASLYV, the dissociation constant Kd in the assay with HLA-A*26:01 [7], with HLA-A*23:01 (setting [21]), with HLA-B*27:03, in the assay with HLA-A*24:03 [8], in the assay with HLA-B*15:01 [9] (setting [21]) and in the assay with HLA-B*51:01 [10] (setting [21]) was at least 20 µM throughout. Further, the dissociation constant (Kd) with HLA-A*29:02, with HLA-B*39:01, in the assay with HLA-B*15:17, with HLA-B*46:01, in the assay with HLA-B*57:01 [11] and with HLA-B*18:01 was at least 20 µM in each case. Moreover, the Kd with HLA-A*02:12 was 0.0368 µM; in the assay with HLA-A*03:01 [12], at least 20 µM; in the assay with HLA-A*02:01 [13] it was 0.0463 µM.
Consider YLHRDIFDI, for which the dissociation constant (Kd) in the assay with HLA-B*07:02, in the assay with HLA-B*40:01, with HLA-A*26:01 [14], in the assay with HLA-B*58:01, with HLA-A*24:03 [15] and with HLA-A*31:01 was at least 20 µM throughout. Further, the Kd was 8.64 µM with HLA-B*15:01 [16] (setting [22]); at least 20 µM with HLA-B*27:05; at least 20 µM with HLA-B*08:01 [17]; at least 20 µM with HLA-A*01:01 (setting [23]); at least 20 µM with HLA-A*69:01; at least 20 µM in the assay with HLA-A*11:01. Further, the Kd in the assay with HLA-B*44:02 was at least 20 µM; with HLA-B*35:01 [6] (setting [22]), 0.113 µM; with HLA-A*03:01 [3] (setting [23]), at least 20 µM; with HLA-A*02:01 [18] (setting [22]), 0.0365 µM.
With AFASLQDML, the Kd is at least 20 µM with HLA-B*07:02; at least 20 µM with HLA-B*40:01; at least 20 µM with HLA-A*26:01 [14]; at least 20 µM in the assay with HLA-B*58:01; 1.28 µM with HLA-A*24:03 [15]; at least 20 µM with HLA-B*15:01 [16] (setting [23]). Also, the equilibrium dissociation constant (Kd) with HLA-B*27:05, in the assay with HLA-A*30:01, with HLA-B*08:01 [17], with HLA-A*69:01, with HLA-B*44:02 and in the assay with HLA-A*03:01 [3] (setting [22]) was at least 20 µM throughout. This sequence registered a Kd in the assay with HLA-A*02:01 [18] (setting [23]) of at least 20 µM.
Consider LLDGTATLRL, for which the IC50 with HLA-A*02:01 [1] (source organism: Homo sapiens) is 0.5 µM.
Take LYQKNIEHF: the dissociation constant (Kd) in the assay with HLA-A*23:01 (source organism: Vibrio vulnificus YJ016) was at most 0.0001 µM.
Turning to YSRMLYIEF, the Kd in the assay with HLA-B*15:01 [9] (setting [24]) was 4.2 µM; in the assay with HLA-B*83:01 it was at least 5 µM; with HLA-B*08:01 [19], at least 20 µM; with HLA-B*15:42, at least 5 µM; with HLA-B*45:06, at least 5 µM.
Regarding PTLDKVLEV, the IC50 in the assay with HLA-A*02:01 [1] (source organism: Homo sapiens) amounted to 2 µM.
With HPASRLFPF, the dissociation constant Kd with HLA-B*83:01 is 0.0534 µM; with HLA-B*08:01 [19], 0.0434 µM; with HLA-B*51:01 [10] (setting [24]) it was at least 20 µM; in the assay with HLA-B*15:42 it was at least 5 µM; in the assay with HLA-B*35:01 [2] (setting [24]), 0.0002 µM; with HLA-B*45:06, at least 5 µM.

Source of the values: the Immune Epitope Database (IEDB).
